Results on one molecule are retold here after article doi:10.1101/2022.07.21.500812 (bioRxiv, 2022).

This experiment has as its target human GPC3 residues 32-483 (hGPC3^core) (human, UniProt P51654 32-483, N-linked glycans at N124 and N241). Description: SPR. On the technique in general: In SPR one partner is held on a chip, and binding of the other changes the refractive index at the surface.

Chain of human GPC3 residues 32-483 (hGPC3^core) (P51654 32-483): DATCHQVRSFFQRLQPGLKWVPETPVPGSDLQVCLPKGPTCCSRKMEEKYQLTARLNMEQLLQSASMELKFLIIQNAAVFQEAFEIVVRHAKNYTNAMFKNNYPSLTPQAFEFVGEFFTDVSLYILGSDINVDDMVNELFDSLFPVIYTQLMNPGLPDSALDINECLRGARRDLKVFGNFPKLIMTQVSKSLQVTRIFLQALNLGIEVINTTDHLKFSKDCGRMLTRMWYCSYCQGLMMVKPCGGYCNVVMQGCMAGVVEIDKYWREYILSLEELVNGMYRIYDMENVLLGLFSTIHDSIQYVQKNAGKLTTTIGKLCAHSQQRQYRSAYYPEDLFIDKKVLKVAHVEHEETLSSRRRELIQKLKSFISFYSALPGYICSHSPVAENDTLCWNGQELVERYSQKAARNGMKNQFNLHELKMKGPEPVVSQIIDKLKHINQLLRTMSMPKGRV

B1: mouse Unc5A ectodomain (mUnc5A^ecto, residues 1-359) (domain or fragment)
chain: not shown
With B1, the binding result is given as “binds”.
